Measured values from patent US20150299797A1, “COMPOSITIONS AND METHODS RELATING TO BLOOD-BASED BIOMARKERS OF BREAST CANCER” (UNIVERSITY OF UTAH RESEARCH FOUNDATION, priority 2012, published 2015).
“Also recorded” adds a separate entry of the source.

Tested on: normal mammary epithelial cells from high-risk (HBC) women or control women
Assay: Drug response assay (CellTiter-Glo cell viability, dose-response)
Assay type: cell-based, human
Conditions: HBC/high-risk vs control, viability after 96 hours, TRAIL p-value<0.001
Procedure: Normal mammary epithelial cells isolated from either high-risk women undergoing prophylactic mastectomy or control women with no family history of breast cancer undergoing breast-reduction surgery for non-cancer related health issues were isolated, and single-cell suspensions were generated. 1500 cells/well for each patient samples were plated in 40 microliters of MEBM basal media supplemented with a MEGM Bulletkit [Lonza] in half-well 96-well plates [Nunc] in triplicate for each drug dose. After 24 hours, TRAIL, Afatinib, Gefitinib, and EGF were added. The indicated doses were chosen within the average linear range of drug effect: TRAIL (0.1 ng/mL-5.0 ng/ml), Afatinib (10 nM-[…]), Gefitinib (0.001 mM-0.5 mM), EGF (5 ng/mL-500 ng/mL) [Millipore (TRAIL) and Selleckchem]. A BIOMEK 3000 (Beckman Coulter, Brea, Calif., USA) robot was used to seed the cells and dispense the drugs. After 96 hours, cell viability was quantified using the CellTiter-Glo Luminescent Cell Viability Assay [Promega]. The proportion of viable cells was calculated for each dosage by comparing against cell counts for non-treated cells. A summary value was calculated for each cell line as the slope of a linear-regression line fitted to the cell-count proportions.

B1: TRAIL: TNF-related apoptosis inducing ligand (TRAIL), from Millipore (protein, UniProt P50591 1-281, looked up)
Tumor necrosis factor ligand …: MAMMEVQGGPSLGQTCVLIVIFTVLLQSLCVAVTYVYFTNELKQMQDKYSKSGIACFLKEDDSYWDPNDEESMNSPCWQVKWQLRQLVRKMILRTSEETISTVQEKQQNISPLVRERGPQRVAAHITGTRGRSNTLSSPNSKNEKALGRKINSWESSRSGHSFLSNLHLRNGELVIHEKGFYYIYSQTYFRFQEEIKENTKNDKQMVQYIYKYTSYPDPILLMKSARNSCWSKDAEYGLYSIYQGGIFELKENDRIFVSVTNEHLIDMDHEASFFGAFLVG
response of primary breast cells of HBC women compared to controls (proportion of viable cells, slope of fitted dose-response): significantly increased response; also recorded: significantly more responsive
